Assay results reported in publication PMC3135484 (Molecular Biology of the Cell, 2011).

T1: Vps16 (individual HOPS subunit, TAP-purified) (yeast (S. cerevisiae), UniProt Q03308 1-798)
T1 sequence: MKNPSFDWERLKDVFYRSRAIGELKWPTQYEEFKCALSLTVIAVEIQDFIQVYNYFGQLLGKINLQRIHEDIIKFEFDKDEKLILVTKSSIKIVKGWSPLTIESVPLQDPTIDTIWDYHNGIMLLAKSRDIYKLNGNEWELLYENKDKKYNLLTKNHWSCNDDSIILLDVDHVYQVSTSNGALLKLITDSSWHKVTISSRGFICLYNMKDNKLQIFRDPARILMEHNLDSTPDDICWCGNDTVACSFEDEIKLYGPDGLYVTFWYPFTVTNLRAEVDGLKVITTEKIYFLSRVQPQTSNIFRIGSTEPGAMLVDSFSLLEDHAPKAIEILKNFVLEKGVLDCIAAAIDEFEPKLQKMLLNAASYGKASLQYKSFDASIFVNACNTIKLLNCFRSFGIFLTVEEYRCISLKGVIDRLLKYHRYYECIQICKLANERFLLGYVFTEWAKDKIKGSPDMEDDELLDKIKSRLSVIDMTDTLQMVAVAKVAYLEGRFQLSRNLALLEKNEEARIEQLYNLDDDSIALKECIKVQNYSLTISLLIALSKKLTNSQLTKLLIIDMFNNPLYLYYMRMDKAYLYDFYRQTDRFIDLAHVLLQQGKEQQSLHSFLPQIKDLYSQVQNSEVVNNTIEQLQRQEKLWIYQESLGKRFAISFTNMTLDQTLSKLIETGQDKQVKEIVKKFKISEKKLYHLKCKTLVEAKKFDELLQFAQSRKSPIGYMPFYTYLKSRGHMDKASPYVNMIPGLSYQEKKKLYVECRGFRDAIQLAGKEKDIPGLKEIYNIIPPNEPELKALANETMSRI

T2: Vps18 (individual HOPS subunit, TAP-purified) (yeast (S. cerevisiae), UniProt P27801 1-918)
T2 sequence: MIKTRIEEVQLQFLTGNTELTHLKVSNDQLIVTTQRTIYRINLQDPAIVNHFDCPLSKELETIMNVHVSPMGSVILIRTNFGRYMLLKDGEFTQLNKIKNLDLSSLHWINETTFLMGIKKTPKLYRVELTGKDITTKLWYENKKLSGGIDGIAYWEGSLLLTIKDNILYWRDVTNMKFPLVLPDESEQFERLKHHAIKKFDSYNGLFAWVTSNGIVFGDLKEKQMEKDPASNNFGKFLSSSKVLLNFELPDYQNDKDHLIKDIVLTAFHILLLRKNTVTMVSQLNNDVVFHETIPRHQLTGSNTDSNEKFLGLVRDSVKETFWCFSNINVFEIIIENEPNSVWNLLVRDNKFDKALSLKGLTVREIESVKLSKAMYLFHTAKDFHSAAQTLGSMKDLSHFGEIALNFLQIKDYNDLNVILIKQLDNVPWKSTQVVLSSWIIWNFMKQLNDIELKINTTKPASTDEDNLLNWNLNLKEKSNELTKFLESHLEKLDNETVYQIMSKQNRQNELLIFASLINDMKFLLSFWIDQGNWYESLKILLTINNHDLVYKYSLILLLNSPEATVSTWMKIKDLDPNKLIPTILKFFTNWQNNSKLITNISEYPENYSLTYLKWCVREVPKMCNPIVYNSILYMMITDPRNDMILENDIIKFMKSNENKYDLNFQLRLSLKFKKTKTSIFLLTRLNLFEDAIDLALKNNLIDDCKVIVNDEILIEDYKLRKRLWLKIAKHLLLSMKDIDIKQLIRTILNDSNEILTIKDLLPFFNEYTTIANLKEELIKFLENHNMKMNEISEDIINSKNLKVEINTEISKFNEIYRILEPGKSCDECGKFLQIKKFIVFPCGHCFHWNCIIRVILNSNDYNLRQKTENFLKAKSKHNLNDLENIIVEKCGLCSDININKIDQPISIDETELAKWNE

T3: Vps33 (individual HOPS subunit, Sec1/Munc18 protein, TAP-purified) (yeast (S. cerevisiae), UniProt P20795 1-691)
T3 sequence: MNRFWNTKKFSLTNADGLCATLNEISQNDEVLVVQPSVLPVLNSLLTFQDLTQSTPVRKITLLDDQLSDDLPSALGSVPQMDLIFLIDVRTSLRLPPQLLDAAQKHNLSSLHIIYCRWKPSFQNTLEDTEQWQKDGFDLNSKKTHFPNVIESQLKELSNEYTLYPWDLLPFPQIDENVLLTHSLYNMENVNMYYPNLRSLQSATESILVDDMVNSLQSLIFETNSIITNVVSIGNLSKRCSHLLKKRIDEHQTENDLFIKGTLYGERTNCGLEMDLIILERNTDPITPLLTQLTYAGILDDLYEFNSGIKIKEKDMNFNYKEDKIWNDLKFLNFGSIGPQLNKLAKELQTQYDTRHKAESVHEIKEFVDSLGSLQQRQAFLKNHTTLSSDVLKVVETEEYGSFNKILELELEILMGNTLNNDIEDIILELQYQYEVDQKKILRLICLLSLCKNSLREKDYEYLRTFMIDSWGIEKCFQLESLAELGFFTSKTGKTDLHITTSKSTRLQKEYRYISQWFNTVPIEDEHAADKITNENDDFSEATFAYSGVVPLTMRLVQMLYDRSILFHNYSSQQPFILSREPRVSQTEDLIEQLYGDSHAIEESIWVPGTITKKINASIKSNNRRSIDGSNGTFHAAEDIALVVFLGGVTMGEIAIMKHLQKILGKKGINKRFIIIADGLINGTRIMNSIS

T4: His-tagged Vam3 (1-264, ΔTMD) (S. cerevisiae, UniProt Q12241 1-264)
T4 sequence: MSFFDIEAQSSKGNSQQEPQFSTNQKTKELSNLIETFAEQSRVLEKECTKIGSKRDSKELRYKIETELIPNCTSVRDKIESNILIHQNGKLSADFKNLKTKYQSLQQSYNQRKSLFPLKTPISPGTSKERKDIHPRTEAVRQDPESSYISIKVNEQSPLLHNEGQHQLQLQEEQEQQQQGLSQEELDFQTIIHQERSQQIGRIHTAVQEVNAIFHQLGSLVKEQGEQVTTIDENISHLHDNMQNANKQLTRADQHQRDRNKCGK

T5: His-tagged Ykt6 (1-200) (S. cerevisiae, UniProt P36015 1-200)
T5 sequence: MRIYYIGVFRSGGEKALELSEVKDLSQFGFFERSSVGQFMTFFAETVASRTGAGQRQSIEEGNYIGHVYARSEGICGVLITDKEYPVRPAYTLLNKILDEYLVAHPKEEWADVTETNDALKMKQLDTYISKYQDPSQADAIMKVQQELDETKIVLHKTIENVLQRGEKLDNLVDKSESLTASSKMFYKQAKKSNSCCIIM

B1: minimal Q-SNARE complex (GST-Vam7 SD, Vam3ΔN and Vti1) (complex)
chain 1: PSTEVTRRAALLRSLLKECDDIGTANIAQDRGRLLGVATSDNSSTTEVQGRTNNDLQQGQMQMVRDQEQELVALHRIIQAQRGLALEMNEELQTQNELLTALEDDVDNTGRRLQIANKKARHFNNSA
chain 2: ESSYISIKVNEQSPLLHNEGQHQLQLQEEQEQQQQGLSQEELDFQTIIHQERSQQIGRIHTAVQEVNAIFHQLGSLVKEQGEQVTTIDENISHLHDNMQNANKQLTRADQHQRDRNKCGK
chain 3: MSSLLISYESDFKTTLEQAKASLAEAPSQPLSQRNTTLKHVEQQQDELFDLLDQMDVEVNNSIGDASERATYKAKLREWKKTIQSDIKRPLQSLVDSGDRDRLFGDLNASNIDDDQRQQLLSNHAILQKSGDRLKDASRIANETEGIGSQIMMDLRSQRETLENARQTLFQADSYVDKSIKTLKTMTRR
B2: GST-tagged Vam7 SNARE domain (190-316) (domain or fragment)
chain: B1 chain 1
B3: His-tagged Vam3ΔN (145-264, lacking the Habc domain and the TMD) (domain or fragment)
chain: B1 chain 2

How the values were obtained:
Experiment in all cases: pull-down
[1] = target: HOPS (homotypic fusion and protein sorting) complex (yeast (S. cerevisiae), UniProt P38959;Q07468;P20795;P12868;Q03308;P27801)
Chain of HOPS (homotypic fusion and protein sorting) complex (P38959 whole entry, chain 1 of 3, the tested form may be a part): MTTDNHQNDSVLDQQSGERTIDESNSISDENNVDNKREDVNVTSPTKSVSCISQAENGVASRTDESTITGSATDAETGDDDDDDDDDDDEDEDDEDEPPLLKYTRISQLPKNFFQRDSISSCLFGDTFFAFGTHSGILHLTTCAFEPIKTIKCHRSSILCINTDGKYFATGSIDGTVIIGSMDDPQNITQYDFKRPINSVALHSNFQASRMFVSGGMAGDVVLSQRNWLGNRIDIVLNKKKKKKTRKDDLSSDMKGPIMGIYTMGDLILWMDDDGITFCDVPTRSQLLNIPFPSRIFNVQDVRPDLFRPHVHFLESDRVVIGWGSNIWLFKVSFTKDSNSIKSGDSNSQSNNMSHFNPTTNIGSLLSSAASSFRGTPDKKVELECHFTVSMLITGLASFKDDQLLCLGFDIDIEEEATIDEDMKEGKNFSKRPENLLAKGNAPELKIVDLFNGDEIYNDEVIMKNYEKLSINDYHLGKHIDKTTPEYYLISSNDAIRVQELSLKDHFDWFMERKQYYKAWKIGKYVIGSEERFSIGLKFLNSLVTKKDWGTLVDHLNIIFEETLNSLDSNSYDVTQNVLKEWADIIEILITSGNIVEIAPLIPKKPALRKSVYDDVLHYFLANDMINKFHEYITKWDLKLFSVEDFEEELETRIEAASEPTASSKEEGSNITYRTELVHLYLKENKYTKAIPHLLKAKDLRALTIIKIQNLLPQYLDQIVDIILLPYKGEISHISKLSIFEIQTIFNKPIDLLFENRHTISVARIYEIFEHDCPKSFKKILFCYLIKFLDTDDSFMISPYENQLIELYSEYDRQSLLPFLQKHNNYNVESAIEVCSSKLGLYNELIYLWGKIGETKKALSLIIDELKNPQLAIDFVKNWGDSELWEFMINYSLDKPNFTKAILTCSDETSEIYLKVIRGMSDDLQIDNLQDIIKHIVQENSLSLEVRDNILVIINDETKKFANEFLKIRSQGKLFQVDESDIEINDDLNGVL
Chain of HOPS (homotypic fusion and protein sorting) complex (Q07468 whole entry, chain 2 of 3, the tested form may be a part): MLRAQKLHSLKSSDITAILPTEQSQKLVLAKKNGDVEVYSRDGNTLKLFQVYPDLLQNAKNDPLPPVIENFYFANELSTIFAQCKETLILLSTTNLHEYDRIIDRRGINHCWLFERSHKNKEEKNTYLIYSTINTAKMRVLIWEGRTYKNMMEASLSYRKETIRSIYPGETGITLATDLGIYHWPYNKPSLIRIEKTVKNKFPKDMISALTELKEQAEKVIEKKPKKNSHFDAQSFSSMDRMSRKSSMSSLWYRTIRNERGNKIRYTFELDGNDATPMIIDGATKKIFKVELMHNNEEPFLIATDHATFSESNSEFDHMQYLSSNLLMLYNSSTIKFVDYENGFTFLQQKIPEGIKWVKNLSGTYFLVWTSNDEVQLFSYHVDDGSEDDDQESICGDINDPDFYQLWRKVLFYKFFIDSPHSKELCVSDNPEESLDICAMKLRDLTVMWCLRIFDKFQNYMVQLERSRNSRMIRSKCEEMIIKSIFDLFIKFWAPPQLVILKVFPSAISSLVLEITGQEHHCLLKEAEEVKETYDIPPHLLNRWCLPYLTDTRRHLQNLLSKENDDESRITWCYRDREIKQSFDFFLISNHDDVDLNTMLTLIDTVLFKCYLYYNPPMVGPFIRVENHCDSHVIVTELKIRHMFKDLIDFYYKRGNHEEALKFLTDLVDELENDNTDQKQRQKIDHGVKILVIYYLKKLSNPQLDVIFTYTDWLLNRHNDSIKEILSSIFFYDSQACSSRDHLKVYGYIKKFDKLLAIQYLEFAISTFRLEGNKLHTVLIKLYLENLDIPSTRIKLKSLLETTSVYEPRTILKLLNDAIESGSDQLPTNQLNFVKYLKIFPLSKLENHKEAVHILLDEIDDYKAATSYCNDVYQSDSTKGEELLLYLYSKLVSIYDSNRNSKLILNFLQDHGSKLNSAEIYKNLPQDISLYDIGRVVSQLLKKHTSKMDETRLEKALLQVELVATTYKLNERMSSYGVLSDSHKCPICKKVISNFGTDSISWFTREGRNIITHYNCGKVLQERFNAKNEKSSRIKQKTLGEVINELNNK
Chain of HOPS (homotypic fusion and protein sorting) complex (P12868 whole entry, chain 4 of 3, the tested form may be a part): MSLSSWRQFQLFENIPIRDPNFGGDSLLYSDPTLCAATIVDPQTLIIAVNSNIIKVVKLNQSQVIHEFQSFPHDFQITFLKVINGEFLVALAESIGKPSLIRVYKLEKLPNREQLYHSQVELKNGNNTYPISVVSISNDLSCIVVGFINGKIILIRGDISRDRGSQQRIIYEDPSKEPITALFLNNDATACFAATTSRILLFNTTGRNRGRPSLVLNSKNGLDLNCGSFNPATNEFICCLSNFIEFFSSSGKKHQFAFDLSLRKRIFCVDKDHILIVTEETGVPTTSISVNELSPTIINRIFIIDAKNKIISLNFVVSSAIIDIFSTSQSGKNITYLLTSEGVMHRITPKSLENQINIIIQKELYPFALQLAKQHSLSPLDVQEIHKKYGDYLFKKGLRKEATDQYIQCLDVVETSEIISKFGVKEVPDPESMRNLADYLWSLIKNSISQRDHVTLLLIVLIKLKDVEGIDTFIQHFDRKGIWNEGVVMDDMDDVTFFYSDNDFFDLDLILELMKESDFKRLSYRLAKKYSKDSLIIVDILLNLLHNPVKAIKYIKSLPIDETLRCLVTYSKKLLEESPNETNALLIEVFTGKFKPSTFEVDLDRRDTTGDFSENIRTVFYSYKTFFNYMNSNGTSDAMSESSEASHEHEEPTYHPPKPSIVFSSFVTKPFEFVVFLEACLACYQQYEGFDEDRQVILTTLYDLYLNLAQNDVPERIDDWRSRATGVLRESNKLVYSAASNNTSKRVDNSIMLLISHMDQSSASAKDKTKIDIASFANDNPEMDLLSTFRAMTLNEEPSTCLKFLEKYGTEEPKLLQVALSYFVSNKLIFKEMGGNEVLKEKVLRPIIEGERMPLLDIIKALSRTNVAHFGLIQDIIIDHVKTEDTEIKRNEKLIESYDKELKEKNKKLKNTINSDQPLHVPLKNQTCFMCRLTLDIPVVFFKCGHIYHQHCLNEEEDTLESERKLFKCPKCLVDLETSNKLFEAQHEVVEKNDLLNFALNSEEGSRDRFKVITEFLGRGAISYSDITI

[2] = target: T1, Vps16 (individual HOPS subunit, …)
[3] = target: T2, Vps18 (individual HOPS subunit, …)
[4] = target: T3, Vps33 (individual HOPS subunit, …)
[5] = target: T4, His-tagged Vam3 (1-264, ΔTMD)
[6] = target: T5, His-tagged Ykt6 (1-200)
[7] = target: His-tagged Vti1 (1-189, ΔTMD) (S. cerevisiae, UniProt Q04338 1-189)
[8] = target: B2

## B1
[1]
  binding result: binds
[2]
  binding result: binds
[3]
  binding result: binds
[4]
  binding result: binds

## B2
[5]
  binding result: binds
[6]
  binding result: binds
[7]
  binding result: binds

## B3
[8]
  binding result: binds
